Source: article PMC7761029, “Identifying Genes Involved in Alkaloid Biosynthesis in Vinca minor through Transcriptomics and Gene Co-Expression Analysis” (Biomolecules, 2020)

Experiments:
[1] = substrate: C[S+](CC[C@H](N)C(=O)O)C[C@H]1O[C@@H](n2cnc3c(N)ncnc32)[C@H](O)[C@@H]1O; test: purified protein; conditions: methyl donor, fixed 16-hydroxytabersonine, 1-200 µM SAM, 50 mM potassium phosphate pH 7, 25 mM ascorbic acid, 30 °C
[2] = substrate: [H][C@]12N3CC=C[C@@]1(CC)CC(C(=O)OC)=C1Nc4cc(O)ccc4[C@@]12CC3; test: initial velocities of 16-methoxytabersonine formation, LC-MS, Michaelis-Menten non-linear regression; assay type: biochemical, Vinca minor; conditions: fixed SAM, 0.2-100 µM substrate, 50 mM potassium phosphate pH 7, 25 mM ascorbic acid, 30 °C

B1: Vm16OMT (Vinca minor) (protein)
chain: MDVQSDEFSKAQAHIWSQVLCHIPTATIKCAIELGIPDAIDNHGKAMTLAELTNSLPLINPSKAPFVRRLMRILVKNGFFSEQQITNDHIAYGLTPSSRILLKNEPLNLRGLVLANLDPSHMKSWVALSEWFQNDNEEAKTAFEIAHNGKNFWDYSAEDTEHAEIFNEAMASDSKLVSELLINTEYKLLFEGLTSMVDVGGGTGTIAKAIAKTFPNLNCTVFDLPHVVANLESMGNLEFVAGDMFVKIPPANAIFLKWILHDWNDEDCVKILKACKKAIPEKEKGGKVIVIDTVIGSKINDDESIKAQLSMDMGMMVDFASKERDEKEWASLFKEAGFSNYKIFPKLDFIRSVIEVYP
Km [1]: 46.2 ± 6.1 µM
kcat [1]: 0.039 s⁻¹
Km [2]: 0.94 ± 0.06 µM
kcat [2]: 0.0144 s⁻¹
